tested on: Escherichia coli TOP10; assay: shrunken log2 fold change of peptide-encoding DNA abundance (4.5 h post-induction vs induction); higher = less antimicrobial activity (less host growth inhibition); conditions: time post-induction: 4.5 h; library: site-saturation at positions 5, 18, 19, 20
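Further: peptides expressed intracellularly from a pBAD plasmid library in pooled LB shake-flask culture, induced with 0.3% L-arabinose, DNA abundance read by NGS, three biological replicates, DESeq2 with apeglm shrinkage.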

Q: Which “shrunken log2 fold change” value does the source give for RRIRPRPPRLPRPRPRPYATPRP here?
A: The value was -0.446.

Q: For RRIRCRPPRLPRPRPRPYDSPRP, which “shrunken log2 fold change” value is on record?
A: The value was 0.00489.

Q: How did the “shrunken log2 fold change” value turn out when RRIRTRPPRLPRPRPRPYDHPRP was run?
A: Its value is -0.097.

Q: For RRIRRRPPRLPRPRPRPQNRPRP, which “shrunken log2 fold change” value is on record?
A: The value was 0.318.

Q: With RRIRMRPPRLPRPRPRPDCQPRP as the sequence, how does the “shrunken log2 fold change” value read?
A: Its value is 1.37.

Q: For RRIRTRPPRLPRPRPRPHNTPRP, which “shrunken log2 fold change” value is on record?
A: Its value is -0.346.

Q: Which “shrunken log2 fold change” value does the source give for RRIRHRPPRLPRPRPRPSYNPRP here?
A: The value was -0.86.

Q: For RRIRVRPPRLPRPRPRPWLMPRP, which “shrunken log2 fold change” value is on record?
A: The value was -0.136.

Q: RRIRWRPPRLPRPRPRPGEIPRP was tested. Which “shrunken log2 fold change” value did it give?
A: The value was 0.889.

Q: With RRIRTRPPRLPRPRPRPYGTPRP as the sequence, how does the “shrunken log2 fold change” value read?
A: The value was -0.347.

Q: RRIRGRPPRLPRPRPRPCRVPRP was tested. Which “shrunken log2 fold change” value did it give?
A: The value was -0.0297.

Q: With RRIRRRPPRLPRPRPRPSDNPRP as the sequence, how does the “shrunken log2 fold change” value read?
A: Its value is -0.134.

Q: Which “shrunken log2 fold change” value does the source give for RRIRPRPPRLPRPRPRPDPQPRP here?
A: The value was -0.0397.

Q: RRIRQRPPRLPRPRPRPVLGPRP was tested. Which “shrunken log2 fold change” value did it give?
A: Its value is 0.226.

Q: For RRIRMRPPRLPRPRPRPEKCPRP, which “shrunken log2 fold change” value is on record?
A: The value was -0.0105.

Q: How did the “shrunken log2 fold change” value turn out when RRIRTRPPRLPRPRPRPFREPRP was run?
A: Its value is -0.0376.

Q: Which “shrunken log2 fold change” value does the source give for RRIRHRPPRLPRPRPRPLGIPRP here?
A: Its value is -0.148.

Q: With RRIRLRPPRLPRPRPRPWFQPRP as the sequence, how does the “shrunken log2 fold change” value read?
A: The value was -0.0555.

Q: RRIRLRPPRLPRPRPRPKALPRP was tested. Which “shrunken log2 fold change” value did it give?
A: Its value is -0.224.

Q: RRIRSRPPRLPRPRPRPKNMPRP was tested. Which “shrunken log2 fold change” value did it give?
A: Its value is -0.324.

Q: With RRIRTRPPRLPRPRPRPFFIPRP as the sequence, how does the “shrunken log2 fold change” value read?
A: The value was -0.518.

Q: RRIRYRPPRLPRPRPRPYQPPRP was tested. Which “shrunken log2 fold change” value did it give?
A: Its value is 0.0857.

Q: Which “shrunken log2 fold change” value does the source give for RRIRIRPPRLPRPRPRPNCEPRP here?
A: Its value is -0.525.

Q: RRIRFRPPRLPRPRPRPSHHPRP was tested. Which “shrunken log2 fold change” value did it give?
A: The value was -0.534.

Q: Which “shrunken log2 fold change” value does the source give for RRIRERPPRLPRPRPRPYNRPRP here?
A: Its value is -0.112.

Q: RRIRERPPRLPRPRPRPRMGPRP was tested. Which “shrunken log2 fold change” value did it give?
A: The value was -0.173.

Q: For RRIRCRPPRLPRPRPRPPDWPRP, which “shrunken log2 fold change” value is on record?
A: Its value is 0.416.

Q: How did the “shrunken log2 fold change” value turn out when RRIRWRPPRLPRPRPRPGFYPRP was run?
A: Its value is 0.0692.

Q: How did the “shrunken log2 fold change” value turn out when RRIRIRPPRLPRPRPRPQRLPRP was run?
A: The value was 0.0966.

Q: With RRIRVRPPRLPRPRPRPTDFPRP as the sequence, how does the “shrunken log2 fold change” value read?
A: The value was -0.0704.

Q: RRIRRRPPRLPRPRPRPEIVPRP was tested. Which “shrunken log2 fold change” value did it give?
A: Its value is 0.246.

Q: Which “shrunken log2 fold change” value does the source give for RRIRDRPPRLPRPRPRPYFCPRP here?
A: The value was -0.177.

Q: For RRIRDRPPRLPRPRPRPESMPRP, which “shrunken log2 fold change” value is on record?
A: The value was 0.0145.

Q: RRIRCRPPRLPRPRPRPPFHPRP was tested. Which “shrunken log2 fold change” value did it give?
A: Its value is -0.224.

Q: Which “shrunken log2 fold change” value does the source give for RRIRARPPRLPRPRPRPMIPPRP here?
A: The value was 0.0233.

Q: How did the “shrunken log2 fold change” value turn out when RRIRLRPPRLPRPRPRPEKNPRP was run?
A: Its value is 0.0916.

Q: How did the “shrunken log2 fold change” value turn out when RRIRQRPPRLPRPRPRPDEHPRP was run?
A: The value was 2.14.

Q: Which “shrunken log2 fold change” value does the source give for RRIRIRPPRLPRPRPRPYNNPRP here?
A: Its value is -0.462.

Q: How did the “shrunken log2 fold change” value turn out when RRIRKRPPRLPRPRPRPSSIPRP was run?
A: The value was -0.0636.

Q: With RRIRWRPPRLPRPRPRPTYMPRP as the sequence, how does the “shrunken log2 fold change” value read?
A: Its value is -0.0572.

Q: With RRIRMRPPRLPRPRPRPMMNPRP as the sequence, how does the “shrunken log2 fold change” value read?
A: Its value is -0.0818.

Q: With RRIRFRPPRLPRPRPRPTDRPRP as the sequence, how does the “shrunken log2 fold change” value read?
A: The value was 0.243.

Q: RRIRGRPPRLPRPRPRPLIHPRP was tested. Which “shrunken log2 fold change” value did it give?
A: The value was 0.324.

Q: How did the “shrunken log2 fold change” value turn out when RRIRTRPPRLPRPRPRPQHQPRP was run?
A: Its value is -0.132.

Q: With RRIRLRPPRLPRPRPRPDDWPRP as the sequence, how does the “shrunken log2 fold change” value read?
A: Its value is 0.044.

Q: Which “shrunken log2 fold change” value does the source give for RRIRTRPPRLPRPRPRPYDWPRP here?
A: Its value is -0.696.

Q: How did the “shrunken log2 fold change” value turn out when RRIRRRPPRLPRPRPRPSLQPRP was run?
A: The value was 0.334.

Q: With RRIRVRPPRLPRPRPRPFTMPRP as the sequence, how does the “shrunken log2 fold change” value read?
A: Its value is -0.368.

Q: How did the “shrunken log2 fold change” value turn out when RRIRPRPPRLPRPRPRPRVFPRP was run?
A: The value was 0.607.

Q: How did the “shrunken log2 fold change” value turn out when RRIRHRPPRLPRPRPRPTPWPRP was run?
A: Its value is 0.692.

Q: For RRIRTRPPRLPRPRPRPVFTPRP, which “shrunken log2 fold change” value is on record?
A: Its value is -0.105.

Q: With RRIRPRPPRLPRPRPRPHSPPRP as the sequence, how does the “shrunken log2 fold change” value read?
A: Its value is -0.0589.

Q: With RRIRARPPRLPRPRPRPECVPRP as the sequence, how does the “shrunken log2 fold change” value read?
A: Its value is 1.07.

Q: With RRIRWRPPRLPRPRPRPMAEPRP as the sequence, how does the “shrunken log2 fold change” value read?
A: The value was 0.203.

Q: For RRIRVRPPRLPRPRPRPPRGPRP, which “shrunken log2 fold change” value is on record?
A: The value was 0.665.

Q: RRIRTRPPRLPRPRPRPTYEPRP was tested. Which “shrunken log2 fold change” value did it give?
A: The value was -0.174.

Q: RRIRVRPPRLPRPRPRPPSVPRP was tested. Which “shrunken log2 fold change” value did it give?
A: Its value is 0.129.

Q: How did the “shrunken log2 fold change” value turn out when RRIRARPPRLPRPRPRPCCIPRP was run?
A: Its value is 0.13.

Q: RRIRKRPPRLPRPRPRPVHVPRP was tested. Which “shrunken log2 fold change” value did it give?
A: The value was 0.0513.

Q: For RRIRFRPPRLPRPRPRPQNHPRP, which “shrunken log2 fold change” value is on record?
A: Its value is -0.619.

Q: RRIRPRPPRLPRPRPRPSNLPRP was tested. Which “shrunken log2 fold change” value did it give?
A: Its value is -0.823.

Q: With RRIRKRPPRLPRPRPRPQFWPRP as the sequence, how does the “shrunken log2 fold change” value read?
A: Its value is 0.248.

Q: For RRIRRRPPRLPRPRPRPAKKPRP, which “shrunken log2 fold change” value is on record?
A: Its value is 1.04.

Q: Which “shrunken log2 fold change” value does the source give for RRIRFRPPRLPRPRPRPNEYPRP here?
A: Its value is -0.16.

Q: RRIRWRPPRLPRPRPRPTMPPRP was tested. Which “shrunken log2 fold change” value did it give?
A: Its value is 0.256.

Q: How did the “shrunken log2 fold change” value turn out when RRIRRRPPRLPRPRPRPQGIPRP was run?
A: Its value is -0.00228.

Q: For RRIRSRPPRLPRPRPRPKWIPRP, which “shrunken log2 fold change” value is on record?
A: Its value is -0.553.

Q: With RRIRRRPPRLPRPRPRPNARPRP as the sequence, how does the “shrunken log2 fold change” value read?
A: The value was 0.35.

Q: For RRIRNRPPRLPRPRPRPLWDPRP, which “shrunken log2 fold change” value is on record?
A: Its value is -0.00945.

Q: With RRIRLRPPRLPRPRPRPRAVPRP as the sequence, how does the “shrunken log2 fold change” value read?
A: Its value is 0.821.

Q: For RRIRERPPRLPRPRPRPFTRPRP, which “shrunken log2 fold change” value is on record?
A: The value was -0.0106.

Q: How did the “shrunken log2 fold change” value turn out when RRIRPRPPRLPRPRPRPDWQPRP was run?
A: The value was -0.0976.

Q: How did the “shrunken log2 fold change” value turn out when RRIRGRPPRLPRPRPRPPFSPRP was run?
A: The value was 0.444.

Q: Which “shrunken log2 fold change” value does the source give for RRIRTRPPRLPRPRPRPCMDPRP here?
A: The value was -0.459.

Q: RRIRLRPPRLPRPRPRPGTKPRP was tested. Which “shrunken log2 fold change” value did it give?
A: The value was 0.2.

Q: Which “shrunken log2 fold change” value does the source give for RRIRFRPPRLPRPRPRPLNTPRP here?
A: Its value is -0.483.

Q: RRIRYRPPRLPRPRPRPFHLPRP was tested. Which “shrunken log2 fold change” value did it give?
A: The value was -0.532.

Q: With RRIRVRPPRLPRPRPRPTPSPRP as the sequence, how does the “shrunken log2 fold change” value read?
A: Its value is 0.253.

Q: For RRIRLRPPRLPRPRPRPDKRPRP, which “shrunken log2 fold change” value is on record?
A: The value was -0.175.

Q: For RRIRFRPPRLPRPRPRPPTHPRP, which “shrunken log2 fold change” value is on record?
A: The value was 0.22.

Q: Which “shrunken log2 fold change” value does the source give for RRIRSRPPRLPRPRPRPSNNPRP here?
A: Its value is -0.66.

Q: RRIRPRPPRLPRPRPRPHHPPRP was tested. Which “shrunken log2 fold change” value did it give?
A: Its value is -0.224.

Q: How did the “shrunken log2 fold change” value turn out when RRIRFRPPRLPRPRPRPHLHPRP was run?
A: The value was -0.511.

Q: RRIRMRPPRLPRPRPRPQEGPRP was tested. Which “shrunken log2 fold change” value did it give?
A: Its value is 0.0197.

Q: How did the “shrunken log2 fold change” value turn out when RRIRVRPPRLPRPRPRPAFLPRP was run?
A: The value was 0.0548.

Q: How did the “shrunken log2 fold change” value turn out when RRIRLRPPRLPRPRPRPLNMPRP was run?
A: The value was -0.461.

Q: With RRIRERPPRLPRPRPRPTVAPRP as the sequence, how does the “shrunken log2 fold change” value read?
A: Its value is 0.075.

Q: How did the “shrunken log2 fold change” value turn out when RRIRFRPPRLPRPRPRPDHTPRP was run?
A: The value was -0.318.

Q: With RRIRWRPPRLPRPRPRPRSTPRP as the sequence, how does the “shrunken log2 fold change” value read?
A: Its value is 0.551.

Q: RRIRKRPPRLPRPRPRPVFNPRP was tested. Which “shrunken log2 fold change” value did it give?
A: Its value is 0.117.

Q: How did the “shrunken log2 fold change” value turn out when RRIRERPPRLPRPRPRPIHQPRP was run?
A: The value was -1.22.

Source: the supplement of paper PMC9112550, “Optimization of the antimicrobial peptide Bac7 by deep mutational scanning” (BMC Biology, 2022)
